One block for each binder: values may come before it.
Legend:
[1] = biological target: T1, GST-CycA (Cyclin A) (UniProt P14785 1-491); test: pull-down; purified GST-tagged protein on beads incubated with 5 µl in vitro translation reaction (reticulocyte lysate) in 500 µl IP buffer, 2 h at 4°C; 3 washes; Western blot with anti-Myc 9E10; details: one partner purified
T1 construct: Cyclin A; construct not described in the methods
T1 sequence (looked up): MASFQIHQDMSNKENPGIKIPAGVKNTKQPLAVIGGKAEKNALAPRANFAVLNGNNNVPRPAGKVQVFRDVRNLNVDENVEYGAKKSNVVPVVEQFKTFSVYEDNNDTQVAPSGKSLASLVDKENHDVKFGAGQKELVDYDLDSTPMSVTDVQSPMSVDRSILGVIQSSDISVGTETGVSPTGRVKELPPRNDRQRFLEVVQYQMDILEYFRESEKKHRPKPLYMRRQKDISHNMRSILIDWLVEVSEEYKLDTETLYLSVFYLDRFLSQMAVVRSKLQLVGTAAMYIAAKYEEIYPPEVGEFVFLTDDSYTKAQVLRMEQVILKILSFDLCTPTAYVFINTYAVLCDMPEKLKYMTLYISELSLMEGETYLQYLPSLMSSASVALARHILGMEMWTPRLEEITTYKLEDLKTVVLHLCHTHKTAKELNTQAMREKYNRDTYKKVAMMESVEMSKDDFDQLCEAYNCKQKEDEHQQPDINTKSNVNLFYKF

[2] = biological target: T2, GST-tagged Mtrm (Matrimony) (Drosophila melanogaster, UniProt Q23973 1-217); test: as above; details: one partner purified
T2 construct: mtrm cDNA LD47919 cloned into pGEX6p-1; also called GST-Mtrm; source: expressed and purified from bacteria
T2 sequence (looked up): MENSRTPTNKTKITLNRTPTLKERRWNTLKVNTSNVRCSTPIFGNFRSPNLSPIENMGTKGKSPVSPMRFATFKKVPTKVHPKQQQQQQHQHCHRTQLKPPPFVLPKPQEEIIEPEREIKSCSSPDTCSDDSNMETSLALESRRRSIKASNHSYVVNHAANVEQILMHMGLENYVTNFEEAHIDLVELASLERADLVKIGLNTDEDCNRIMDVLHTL

fold binding to GST-CycA against binding to GST-Mtrm [1]: 155 fold
B1: 6×Myc-Fzy/Cdc20, in vitro translated (natural protein, Drosophila melanogaster, UniProt Q24044 1-526, looked up)
chain: MSQFNFVSDLQNALIMDGETRGPAPRWKKKLEASLNGSVNTTRSVLSVSYNTSFSGVQAPTKTPGKSSEGKTKKSNTTPSKTPGGGDRFIPNRAATNFELAHFLVNKDSGDKSDEENDKATSSNSNESNVQASAHKGDRQKLISEVAQVGDSKGGRILCYQNKAPAAPETHNNPLKVVYSIKTPISTKSGSRYIPTTSERILDAPDFINDYYLNLMDWSADNIVAVALGSCVYLWNAQTGNIEQLTEFEEGDYAGSLSWIQEGQILAIGNSTGAVELWDCSKVKRLRVMDGHSARVGSLAWNSFLVSSGSRDGTIVHHDVRAREHKLSTLSGHTQEVCGLKWSTDFKYLASGGNDNLVNVWSAASGGVGTATDPLHKFNDHQAAVRALAWCPWQPSTLASGGGTADRCIKFWNVNNGTLMKSVDSKSQVCSLLFSRHYKELISAHGFANNQLTIWKYPTMVKQADLTGHTSRVLQMAMSPDGSTVISAGADETLRLWNCFAPDPLASKKAVSTSKGKQSVFRQSIR
notes: 6×myc-fzy/cdc20 cDNA cloned into pOT2; also called Myc-tagged Fzy/Cdc20; Fizzy; source: in vitro translated (TnT T7 Coupled Reticulocyte Lysate System, rabbit reticulocyte lysate)

fold binding to GST-Mtrm against 6×Myc-CortΔWD40 [2]: 5.8 fold
B2: 6×Myc-Cortex (full length), in vitro translated (natural protein, Drosophila melanogaster, UniProt Q960N3 1-483, looked up)
chain: MFVEMSVCDSPNKNSKLDKKSLTPFKKVRRKNWKQEAAYKSDTSKGQEVSYVGERFIPNRFERENIEFNLKYIGKRKERDILETGVTLTASYWRQSGFISNINRTFGIGERRLFQFSSQQGTRSRVVDNDSADSDWPCNPRARPYAIQNATHEMPGICSPVDYNMMDWSSGGMVAMSSGQDVMLWRNLDESTMVFSVESPTSLKYSPDGKHLAIGCMDRNYPVLDLWEVRSPTEFLVSYRKLFFKSMGYISCIEWSHDGKEVICGTQCGVIIVLAMPTLNTLMQLREHRHTVKKMKFAPTHKYFASSDTDGKIFIFDAVLKVRLLKLDGRSIVFDWHPWTGEDLAVAERSPASIFIFNIPRRQFVASYRRRDDRIVIKTLTYSKITGELLVNVIRRDDADLAVCEILVLASLNRVVDLMSHQDRGTLFLMWNPDGTKIATGGLDDTFSLWNFFPTYKREAILRKQEQKAKDKCSSLSLYKGIR
notes: 6×myc-cort cDNA cloned into pOT2; also called Myc-tagged Cort; source: in vitro translated (TnT T7 Coupled Reticulocyte Lysate System, rabbit reticulocyte lysate)

Reference: PMC3760765, “A Meiosis-Specific Form of the APC/C Promotes the Oocyte-to-Embryo Transition by Decreasing Levels of the Polo Kinase Inhibitor Matrimony” (PLoS Biology, 2013)
